The target of the assay is M. tuberculosis ClpX (M. tuberculosis) (UniProt P9WPB9). Nature of the assay: SPR.

In paper doi:10.1101/491043 one finds Kd and fold reduction in binding against σ^D/RsdA data, which are given here for four substances.

“σ^D/RsdA complex (from UniProt P9WGG8;H8EZ77)” showed a Kd of 14.5 nM.

As to “σ^K/RskA complex (from UniProt A5TZH1;A5TZH0)”, the Kd came to 164 nM.

“σ^L/RslA complex (from UniProt H8EXN1;H8EXN2)” had a fold reduction in binding against σ^D/RsdA of 10 fold.

σ^M/RsmA complex displayed a Kd of 133 nM.
